The source of these data is patent US20100068766A1 (WASEDA UNIVERSITY, published 2010).

Sequences and labels used below:
B1: Rad51B protein (other, UniProt O15315-1 1-350, looked up)
chain: MGSKKLKRVGLSQELCDRLSRHQILTCQDFLCLSPLELMKVTGLSYRGVHELLCMVSRACAPKMQTAYGIKAQRSADFSPAFLSTTLSALDEALHGGVACGSLTEITGPPGCGKTQFCIMMSILATLPTNMGGLEGAVVYIDTESAFSAERLVEIAESRFPRYFNTEEKLLLTSSKVHLYRELTCDEVLQRIESLEEEIISKGIKLVILDSVASVVRKEFDAQLQGNLKERNKFLAREASSLKYLAEEFSIPVILTNQITTHLSGALASQADLVSPADDLSLSEGTSGSSCVIAALGNTWSHSVNTRLILQYLDSERRQILIAKSPLAPFTSFVYTIKEEGLVLQAYGNS
notes: In the pull-down it was either coupled to Affi-Gel 10 beads or free in solution
B2: human Ev1 protein (NCBI accession No. AAF21709) (other, UniProt Q9UI08-2 1-418, looked up)
chain: MATSEQSICQARASVMVYDDTSKKWVPIKPGQQGFSRINIYHNTASNTFRVVGVKLQDQQVVINYSIVKGLKYNQATPTFHQWRDARQVYGLNFASKEEATTFSNAMLFALNIMNSQEGGPSSQRQVQNGPSPDEMDIQRRQVMEQHQQQRQESLERRTSATGPILPPGHPSSAASAPVSCSGPPPPPPPPVPPPPTGATPPPPPPLPAGGAQGSSHDESSMSGLAAAIAGAKLRRVQRPEDASGGSSPSGTSKSDANRASSGGGGGGLMEEMNKLLAKRRKAASQSDKPAEKKEDESQMEDPSTSPSPGTRAASQPPNSSEAGRKPWERSNSVEKPVSSILSRTPSVAKSPEAKSPLQSQPHSRMKPAGSVNDMALDAFDLDRMKQEILEEVVRELHKVKEEIIDAIRQELSGISTT
notes: range 1-418; His tag removed by thrombin; By gel filtration it eluted at approximately 600 kDa (approximately 13-mer multimer); In the pull-down it was either coupled covalently to Affi-Gel 10 beads or free in solution; also called entire-length Ev1 protein; His-Ev1 (before the tag was removed)

The target in data set [1] is B2. Briefly: pull-down, Ev1 coupled to Affi-Gel 10 beads, SDS-PAGE, Coomassie stain. Here is the method:
Thereafter, the obtained mixture was incubated at 4° C. overnight. The Affi-Gel 10-Ev1 beads were washed 3 times with 500 μl of washing buffer 1 (20 mM potassium phosphate (pH 8.5), 30% glycerol, 700 mM NaCl, 5 mM 2-mercaptoethanol, and 0.05% Triton X-100). The Affi-Gel 10-Rad51B beads were washed 3 times with washing buffer 2 (20 mM HEPES-NaOH (pH 7.3), 30% glycerol, 90 mM NaCl, 2 mM 2-mercaptoethanol, 0.1% Triton X-100, 2 mM ammonium sulfate, and 0.1 mM EDTA). Thereafter, a 50% suspension of such Affi-Gel 10-protein was prepared, and it was then preserved at 4° C.
In order to carry out a binding assay, an Affi-Gel 10-protein suspension (30 μl) was incubated with 10 μg of an Ev1 or Rad51B protein at room temperature for 150 minutes. Affi-Gel 10-Ev1 beads were washed 4 times with 100 μl of buffer 1 (20 mM potassium phosphate (pH 8.5), 30% glycerol, 700 mM NaCl, 5 mM 2-mercaptoethanol, and 0.3% Triton X-100). Affi-Gel 10-Rad51B beads were washed 4 times with 100 μl of buffer 2 (20 mM HEPES-NaOH (pH 7.3), 30% glycerol, 90 mM NaCl, 2 mM 2-mercaptoethanol, 2 mM ammonium sulfate, 0.1 mM EDTA, and 0.35% Triton X-100). An SDS-PAGE sample treatment buffer (2×) was directly mixed with the washed beads, and the obtained mixture was then subjected to a heat treatment at 100° C. for 2 minutes. […]

Data set [2] concerns the molecule itself. In words: inferred from the pull-down on Rad51B-bound beads; gel filtration (approximately 600 kDa). On the technique in general: SEC sorts molecules by how far they enter the pores of the column.

In the case of B1, the stoichiometric ratio in data set [1] is 1 Rad51B:Ev1 (1:1).

For the molecule B2, in data set [2], the binding result is given as “binds”.
